Reference: the DeepSol protein solubility set

assay: soluble on expression in E. coli; label from the status in PepcDB or PDB records

| Sequence | soluble on expression in E. coli |
| --- | --- |
| VDNVLVIIGPTASGKTKLAIEIAKRANGEIISADSMQIYKYMDIGTAKPDEEEKEGIKHYLIDEVTPDEEFSVARFKELALKYIDEILSKGKLPIVAGGTGLYINSLIYNLEFSDTICDWELRKKLEQEAKEKGNEYLHNKLKEIDPKAAEKIHMNNVKRVIRAIEVYTYTKKPISVHQEESRKNPPRHNFILIGITMDREKLYDRINKRVDLMLEKGLVKEVEKLVEMGYDKSTIAMQGLGYKEILSYLRGERSLDEAVEILKRDTRRYAKRQMTWFRKIENVYWINKDEFDSDEKIIKNLKYYLATFGIFL | soluble |
| MHLHFTPRQIVEKLDQYIIGQKDAKKAVAVALRNRYRRSKLAENLRDEIAPKNILMIGPTGVGKTEVARRMAKLVGAPFIKVEATKFTEVGYVGRDVESMVRDLVETSVRIVKEEMVVKVQDKAEEQANQRLVEILVPSPEKQSGFKNPLEMLFGGTQNSNQTTDSQEDVEIEKKRQDVERKLAAGLLEDEIVSIEVTEQQSSMFDMLQGTGMEQMGMNFQDALGSFMPKKTKKRKLSVKEARKVLTNEEAQRLIDMDEVTQEAVYRAEQLGIIFIDEIDKIAGKQSNSVDVSREGVQRDILPIVEGSNVATKYGSVKTDYILFVAAGAFHMSKPSDLIPELQGRFPIRVELTKLSTDDFVKILIEPDNALIKQYMALLATEGIEIEFSDEAIRKIAEIAYQVNQDTDNIGARRLHTIMEKLLEDLSFEASEITLEKITITPQYVEEKLATIAKNKDVSQFIL | not soluble |
| MSNSFGIKVIACDKIFYNGRCTQLVLPLRDGSKAIQAHHENMVFSVEVGEIKITKEDGSTIVGVTGTGFAQMVNNRATVIVDTCEYPEEIDLRRAEEAKERAEEQLRQKQSIAEYHISKASLARAMARLKEGSGKGTPYGY | not soluble |
| MGSDKIHHHHHHMITVNDLSVQFGKRILFQDVNLTFTPGNCYGIIGANGAGKSTMLRVISKQLDPTRGTVTLGPGERLSVLSQDHFAFDENTVMDTVLMGHSVLWAIMEEKNALYAKPDFSDEDGTRVAELEDKFAEMEGWNAESDAAMLLSGLGIKEDLHYMLMKDLSGKQKVRVLLARALYGKPDNLLLDEPTNDLDLETVSWLENYLSNFENTVLVVSHDRHFLDSVCTHTVDIDFGKVQQFSGNYSFWYESSQLALRQQQQQNKKAEEKRKELEEFIRRFSANVAKSKQTTSRKKMLEKLNIEEITPSSRRYPGILFTPGREPGNKILEVKGLTKSIEGQLLFRDLNFNVEKDDKIVFISRDPRAMTALFSIINGEMTPDEGTYEWGQTITTAYLPLDNSGYFNTDLNLVEWLSQFAKDTNEVFLKGFLGRMLFSGEEILKKASVLSGGEKMRCMISKMMMLDANTLVLDTPTNHLDLESIQAFNNTLKTYRGNVLFASHDHEFIQTVANRIIELTPNGIIDKIMDYDDYITDPIVAEMRQKLYGQ | not soluble |
| MSLRSYLGSISTSKTEVNSMKMHVLKLLIPTMALLLSACASLPPELGNPDDKSVVTQYSAWLERDPATQSPVRMGGVVANISNQKDRTRVELVNLPIDSAGRPNIHQEPQGRFVAYVPGFLDPITYGEGRLLTLYGTTAPSEQGKVGDYEHTYPVMNAQGYHLWRVEERVEVDDIGPYMFPCRGFYCWPRTMPERDGKIIQEVKEGGSHHHHHH | soluble |
| MAWLRFFSRTLKSLPQISSSSPNPNPNFRTSPFSTSFLITKTPDKLKKKRKKPESARTKSIQHESTKLPHLESLVSRDAHFRFLIRSKEFISKQPERILRLDDAGKLYRELGFPRGRKVTKFIPKHPLIFQTYRHSDGKIWLGFTEFMEDLLDEEKGLMESMELDRVNCVRKLLMMTKDKRILLSKIHHTRLLFGIPEDFRDRVAKYPDYFRVVTGGDGNRVLELVNWDTNLAHGKELELEEKDTRKLNLLNTFPLVSPYSDGWKLDVWSLEAEKYRVGIVHEFLNLTLEKRASIHHIVEFKDEFSLTRQTYQMLKKQSMSFYLAGTEMNWTVFLKDAYDENGVLVSKDPQVVFNEKLYKYADMQQMEQVG | soluble |
| MHHHHHHSSGRENLYFQGDLQATPGMFITSKKGHLSEMYQRVKKLGSGAYGEVLLCRDKVTHVERAIKIIRKTSVSTSSNSKLLEEVAVLKLLDHPNIMKLYDFFEDKRNYYLVMECYKGGELFDEIIHRMKFNEVDAAVIIKQVLSGVTYLHKHNIVHRDLKPENLLLESKEKDALIKIVDFGLSAVFENQKKMKERLGTAYYIAPEVLRKKYDEKCDVWSIGVILFILLAGYPPFGGQTDQEILRKVEKGKYTFDSPEWKNVSEGAKDLIKQMLQFDSQRRISAQQALEHPWIKEMCSKKESGIELPSLANAIENMRKFQNSQKLAQAALLYMASKLTSQEETKELTDIFRHIDKNGDGQLDRQELIDGYSKLSGEEVAVFDLPQIESEVDAILGAADFDRNGYIDYSEFVTVAMDRKSLLSKDKLESAFQKFDQDGNGKISVDELASVFGLDHLESKTWKEMISGIDSNNDGDVDFEEFCKMIQKLCSNNE | soluble |
| MSLSNSLLPPNASGLERDIEQVIVQSTDLPIRIKDLWNPYSCHLSLLPWLAWALSVDEWDDRWPEHIKRQVVQDSFDVHRFKGTPYAVQKALDSLNIKTHLREWWEPDGSQEPGTMTVVALINENLTDDDNGLITEAMLEQVTRVIHTAKRGVIHFDVELGISLDETLGFSGAIGPSIAEIDFSSDFLPIVPEKGSADMAFSAALYGIGSADFLADMSGVVPDEGHHHHHH | not soluble |
| MSLAMLMLLAACSERSADWSLYNVKGHLPDLKFSLPGAHGKTVSSDDLKGKTVLLFFGYASCPDVCPTTMAQLTAVLQQLGEQARDVRILFVSVDPHRDTPDILQAYVNAFNNNAIGVTGNEKQIADLARRYRLAYQIEKPKPGDDADIYDVTHSRGVYIFDNQGKARLLASDTDTIDTMVKDLRQLIAQTQEGHHHHHH | soluble |
| MSKPGQTILVALRKMIASGELAAGERLMEVPTAELFGVSRMPVRMAFRTLEQEGLLVPFGGRGFQVRSISPQEIAGAVDVRGVLEGLAARQMAERGLTQDARDALEACLVQGDALFDKGYVTEDDLEVYHDMNMRLHQVIVAGSGNRAIADALARNDHLPFASVTALAVDRHNLIREYRRFNFAHMQHHAVVDALINGQGARAEALMREHANATLRYADIFGAGVHERMKVIQRPD | not soluble |
| MSAKQKELERLLELKKKQEEQQVLNQKDMLERIKLENKYMEFLQMTSQQMEEELKKRGPVKEVEVKGKDIDPIIADYKKLYSKESWYKEPETKDGKTHLTFPSQEAAGTFFKDQAEKNRSFIVIDAATNKVLAYSNGDGKLYNGNGSLYQGGDFKASKEDFTSFKMPEREEPKMGMQL | not soluble |
| MSDRHMSSIFPECDHLKQIYDKCFTEFFQKFITPNYRHQYAVNPCERLHDVYKRCVEERLATQRPFEIDLDEIRKEYLNTDDDKLKDRQNNQKTNSENKCSSS | not soluble |
| MAHHHHHHMDGEALFNHIASCSETGYLTMEDFVRWMSETATDKGQKNYESIDVDERAVMRKALLQLCERLEARCLNSLQMFRLASTMPRAYTERRADIYSLANPHRDALVTPVQLRRCIEEVLGGNPSPREMDALLSFFFPQLPLEEYRSRRDGDLEHALDLKAFQKKYHEMNKLLMLSEPSKQQQQTQQRQQE | soluble |
| GCGVEEKTEVQLLKEMPKPKAMTIDPSLSQKEATEMVHAAQRFYAFWDTGKEELIPQTVTENFFDHTLPKGRPQGTEGLKFAAQNFRKIVPNIHCEIEDLLVVGDKVTARLSFTGTHNDKKIDFFAIDILHVKDGKITEDWHLEDNLTLKQQLGLIAEE | soluble |
| PLKEQKVINTANITTNSKLDLAEYENGLMNIAKEQFDTENHVLQLNQYIPEKLVDELVAKVKAPVLTNIIEQDYFGKQNSNELSLSGVVIGLAMSSSVSNEEALSKGTEVAGQLIEAIHKNGKYNKSPITFAIFKQESTSSLKNGTYIASATVQKNDTNLGNWNAIEEKAYSYPSDEFTQAHGEDNEKINKFAEAMKGFSPGDFIPVNAKVSYKKNQMDTLNMDIVIKYNGKTELMALTQLAAQSMLDQLPKDAKVQLQIKSENKIEAIVIKEKNSDKPFVSFL | soluble |
| MSLARDYRWEGVPLKAYKTDGTHFRAITRQTLLGADEDERALGHQTRYFEIAPGGYSSLERHQHTHTVMILRGQGELILGDALHRIGRHDCIYIAPQTFHQFHASGDEPLGFLCIVDRERDRPRLPDDDELARMRALPGVGPKVRTEGHHHHHH | soluble |
| MDGTMEDSEAVQRATALIEQRLAQEEENEKLRGDTRQKLPMDLLVLEDEKHHGAQSAALQKVKGQERVRKTSLDLRREIIDVGGIQNLIELRKKRKQKKRDALAASHEPPPEPEEITGPVDEETFLKAAVEGKMKVIEKFLADGGSADTCDQFRRTALHRASLEGHMEILEKLLDNGATVDFQDRLDCTAMHWACRGGHLEVVKLLQSHGADTNVRDKLLSTPLHVAVRTGQVEIVEHFLSLGLEINARDREGDTALHDAVRLNRYKIIKLLLLHGADMMTKNLAGKTPTDLVQLWQADTRHALEHPEPGAEHNGLEGPNDSGRETPQPVPAQLEHHHHHH | not soluble |
| MGSDKIHHHHHHMNSLPTESPQSKKSLPSTSMLAAFDAAARTGSFTAAAKDLALTQGAISRQVNALEMQISVNLFHRHKQNISLTEAGKTYAKEVNSALSHIRSATLNLMTNPDGGILNIAILPTFGSRWLMPRLADFLAKHPRITINTVCKLSQFDFSHEDIHCAIHFGKADWSQANCTFLMAEESVPVCSPKLFEQAELAKVDNVCARLINLPLLHIATRPNAWQHWFDEHNVDSTTKEQPKKKTLQDMHFEQFSIVTNAAVAGLGVALLPKFLVESELQRGELQVICNKPQRTDNGYYLVTPNDKLNYAPMVAFTRWLSQVIKSEKPSILNK | not soluble |
| MGSDKIHHHHHHMKNIKIFPKDWLQLHPYKQSTPVDSYYTGIANRIYDIMEKTELVNSFEGEETKQICIRMAAYFEDVISGMGLWRAFILTHKELYGKYLPFYTPDDHYYDDEVNLEDVRFLLWHYTQQYHGYRKGTFVSPDNPANESTGMLIYDLFCKEWTTAPENTRMAKLFALDTRYERQEDYDRLLQWFHYESYILPESARELSDFAHDRWKEQPDLNQEQLNNLLVNSHGMMAYTSKTSLLGLTSPQWLAKILPAEHPDHAVFQNTADESVATLPDDMLEENRQQYETFRKAAGDKLLLYFDKTEDAQTFITETSGLIPAENFHLPEDWQGKKLAIYATPEEGAQVITRDVELIKDENNPFYDANRAAKQALSFFIVKHCSVYFLPELVKRGMLADAQTKSLISPERGKAIIQENWKFLARYFIREYPNR | not soluble |
| MAHHHHHHMNIKRSIYHYLSYSSFLIKNHYHHNNTIYPCFHSLRNNNKMSYFRPNYFICIPIKNDNICNELINIQKHVLVKYDELKDCIIERNKFHISLLILHIKKNQIELSKEAFNEAMEKIKKNMHNEKICFEKLDTFRNDVLYLSLKEDSNKYIINIINHLIDSFSKRGIKIIFNNKKPAKEILSNNNKKELNKNSNDLQHITPHLTLMKNSYMKKMYMNKKPQILPFFYTDYDLTNLLKEQIDIQKIQFLEMDMDTSTSYYKIVSEFNL | not soluble |
| QTVARKCSLTGEWDNDLGSIMTIGAVNDNGEFDGTYITAVADNPGNITLSPLLGIQHKRASQPTFGFTVHWNFSESTSVFVGQCFVDRSGKEVLKTKWLQRLAVDDISDDWIATRVGNNDFTRQHTVEE | soluble |
| MAHHHHHHMGKLQAPCSPTVCGYPLPYPRSLSHNLFNVIQDTRRKGKTNTEQSELKNEGDPLTLSPIVPKVDTSPATESKGRRREEKPLAHEGQLLKHKLDVWRDLFLASAAQQLAASGHPRSRRDDAGNVFYSNISCYLKEGCIVKSEDTDLRTGPRDHLRVQGAYLSHLAPEAFANLHVTLDGNTFVLRNVQRTSPTIKQISEELCEERGIRLLPTAMQKKVAYLVSQVSTSTKERAGTISGKKGLATSKWKHTNSLQTCKHSLNMELPEVTYRSRVLSTIREGAYGSPFQKGCKM | not soluble |
